Results: patent US20250115677A1, “Anti-CEA Antibody Drug Conjugates and Methods of Use” (BeiGene Switzerland GmbH, priority 2022, published 2025)

Key:
[1] = biological target: T1, chimeric construct (CHIM) (human); experiment: SPR; binding to CHIM
T1 construct: CEACAM6 AA 1-273 joined to the membrane-peripheral region containing domain B3 of CEA (AA 596-687), C-terminal 6xHis; also called chimeric CEA
T1 chain: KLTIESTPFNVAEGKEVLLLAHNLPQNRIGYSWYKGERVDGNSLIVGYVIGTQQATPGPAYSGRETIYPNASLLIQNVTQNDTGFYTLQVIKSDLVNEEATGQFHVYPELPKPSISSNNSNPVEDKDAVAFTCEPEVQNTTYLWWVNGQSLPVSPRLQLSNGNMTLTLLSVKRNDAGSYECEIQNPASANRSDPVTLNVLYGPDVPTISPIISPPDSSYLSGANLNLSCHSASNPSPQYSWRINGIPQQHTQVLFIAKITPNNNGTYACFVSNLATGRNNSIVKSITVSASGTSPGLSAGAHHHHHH

[2] = biological target: T2, recombinant soluble human CEA (extracellular domain, AA 1-687 of huCEA, C-terminal 6xHis) (human, UniProt P06731 35-687); experiment: SPR; kinetics on huCEA, IgG format
T2 construct: also called sCEA; soluble CEA
T2 sequence: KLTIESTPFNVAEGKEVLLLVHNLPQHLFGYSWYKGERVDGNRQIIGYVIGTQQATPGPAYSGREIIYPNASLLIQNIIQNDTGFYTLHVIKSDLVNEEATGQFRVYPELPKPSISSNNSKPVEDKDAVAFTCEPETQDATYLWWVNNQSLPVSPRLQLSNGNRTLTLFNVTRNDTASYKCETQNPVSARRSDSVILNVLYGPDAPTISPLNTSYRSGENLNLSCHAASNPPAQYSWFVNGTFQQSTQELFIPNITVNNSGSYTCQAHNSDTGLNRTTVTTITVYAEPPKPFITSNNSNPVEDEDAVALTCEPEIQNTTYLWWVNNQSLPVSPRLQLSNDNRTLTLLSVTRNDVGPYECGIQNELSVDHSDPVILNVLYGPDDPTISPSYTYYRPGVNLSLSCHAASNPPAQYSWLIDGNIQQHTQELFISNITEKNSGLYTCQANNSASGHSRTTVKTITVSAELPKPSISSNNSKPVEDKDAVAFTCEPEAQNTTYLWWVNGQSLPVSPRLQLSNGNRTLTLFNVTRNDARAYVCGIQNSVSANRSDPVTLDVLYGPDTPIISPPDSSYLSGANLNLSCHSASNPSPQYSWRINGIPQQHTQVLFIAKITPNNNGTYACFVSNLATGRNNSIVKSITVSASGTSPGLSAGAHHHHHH

[3] = biological target: T3, human CEA on cells (MKN45, LOVO, NCI-H2122, LS174T, CT26/CEA) (human, UniProt P06731 35-685); experiment: flow cytometry on MKN45 cells, Alexa Fluor 647 anti-human IgG Fc
T3 construct: Full-length human CEA, endogenous on tumour cell lines or transduced; also called native CEA on living cells; huCEA surface protein
T3 sequence: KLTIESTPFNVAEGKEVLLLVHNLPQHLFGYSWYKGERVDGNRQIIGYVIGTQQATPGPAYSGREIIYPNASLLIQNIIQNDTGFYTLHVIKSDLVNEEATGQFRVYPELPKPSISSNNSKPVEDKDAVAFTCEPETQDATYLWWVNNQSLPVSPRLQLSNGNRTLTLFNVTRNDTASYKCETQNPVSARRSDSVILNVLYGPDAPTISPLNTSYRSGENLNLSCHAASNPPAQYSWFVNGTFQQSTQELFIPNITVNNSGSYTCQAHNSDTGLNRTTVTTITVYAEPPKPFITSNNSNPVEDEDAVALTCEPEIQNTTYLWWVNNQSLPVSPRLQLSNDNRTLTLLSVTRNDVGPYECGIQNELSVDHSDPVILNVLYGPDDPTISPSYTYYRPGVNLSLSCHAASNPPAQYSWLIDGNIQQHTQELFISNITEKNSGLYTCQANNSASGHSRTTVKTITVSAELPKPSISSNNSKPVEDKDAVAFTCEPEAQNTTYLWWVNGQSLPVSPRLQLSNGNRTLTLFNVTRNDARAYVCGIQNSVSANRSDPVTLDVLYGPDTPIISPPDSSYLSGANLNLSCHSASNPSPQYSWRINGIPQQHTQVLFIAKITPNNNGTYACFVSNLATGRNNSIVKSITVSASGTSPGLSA
Experimental: For flow cytometry, CEA-expressing MKN45 cells (10^5 cells/well) were incubated with various concentrations of purified affinity-matured antibodies, followed by binding with Alexa Fluor-647-labeled anti-hu IgG Fc antibody (Cat. No. 409320, BioLegend, USA). Cell fluorescence was quantified using a flow cytometer (Guava easyCyte™ 8HT, Merck-Millipore, USA).

[4] = biological target: T3, human CEA on cells (MKN45, LOVO, …); experiment: cell-based or functional assay
[5] = biological target: T3, human CEA on cells (MKN45, LOVO, …); experiment: flow cytometry on MKN45 cells
CEA = biological target: T4, CEA (Homo sapiens, UniProt P06731); experiment: Binding of humanized and PTM-engineered BGA7592 variants compared to BGA7592-1
T4 sequence (P06731 35-676): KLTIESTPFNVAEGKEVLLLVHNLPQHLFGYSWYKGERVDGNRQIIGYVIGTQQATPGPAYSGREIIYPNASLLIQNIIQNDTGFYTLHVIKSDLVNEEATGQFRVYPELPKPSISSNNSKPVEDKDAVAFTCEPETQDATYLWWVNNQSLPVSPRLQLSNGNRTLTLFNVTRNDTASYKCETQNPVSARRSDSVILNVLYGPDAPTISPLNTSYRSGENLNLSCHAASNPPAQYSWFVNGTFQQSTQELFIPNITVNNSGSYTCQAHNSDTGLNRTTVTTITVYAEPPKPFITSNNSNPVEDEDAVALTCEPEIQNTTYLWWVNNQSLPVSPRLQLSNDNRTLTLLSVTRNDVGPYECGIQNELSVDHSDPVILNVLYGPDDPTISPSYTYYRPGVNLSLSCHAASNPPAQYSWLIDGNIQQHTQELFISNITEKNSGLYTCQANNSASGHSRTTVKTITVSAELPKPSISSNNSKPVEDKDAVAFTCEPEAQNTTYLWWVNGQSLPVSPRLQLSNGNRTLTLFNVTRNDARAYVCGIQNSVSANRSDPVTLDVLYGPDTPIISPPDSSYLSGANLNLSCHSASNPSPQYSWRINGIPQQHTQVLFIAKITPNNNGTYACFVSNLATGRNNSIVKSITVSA
From the text: Using BGA7592-1, an additional number of single or multiple amino acid changes were made, converting the human residues in framework regions of VH and VL to corresponding murine germline residues, which include V68A, R72A and V79A in VH and V43S in VL, respectively. This resulted BGA7592-2 (V68A, R72A in VH), BGA7592-3 (V79A in VH), BGA7592-4 (V68A, R72A, V79A in VH), BGA7592-5 (V43S in VL), BGA7592-6 (V68A, R72A in VH, and V43S in VL), BGA7592-7 (V79A in VH, V43S in VL) and BGA7592-8 (V68A, R72A, V79A, in VH and V43S in VL). All antibodies which contained modifications had similar binding activities to BGA7592-1, and none of the changes abolished binding.
In order to remove post-translational modification (PTM) sites, further engineering was made by introducing mutations in CDRs and framework regions based on the BGA75921 sequence, which include N52T, N54Q, N59S, N102G, N104Q and S61A amino acid changes in the VH region. […] While maintaining specificity, amino acid compositions and expression levels were also considered. All humanization mutations were made using primers containing mutations at specific positions and a site directed mutagenesis kit (Cat. FM 111-02, TransGen, Beijing, China). The desired mutations were verified by sequence analysis.

CEA variant (CEA-v) = biological target: T5, CEA variant (CEA-v) (human, UniProt P06731 35-687); experiment: SPR (BIAcore T-200); antibody captured by anti-murine IgG, antigen flowed
T5 construct: Splice-variant construct made by overlap PCR of CEA AA 1-78 and AA 398-687, C-terminal 6xHis; also called sCEA-v
T5 sequence: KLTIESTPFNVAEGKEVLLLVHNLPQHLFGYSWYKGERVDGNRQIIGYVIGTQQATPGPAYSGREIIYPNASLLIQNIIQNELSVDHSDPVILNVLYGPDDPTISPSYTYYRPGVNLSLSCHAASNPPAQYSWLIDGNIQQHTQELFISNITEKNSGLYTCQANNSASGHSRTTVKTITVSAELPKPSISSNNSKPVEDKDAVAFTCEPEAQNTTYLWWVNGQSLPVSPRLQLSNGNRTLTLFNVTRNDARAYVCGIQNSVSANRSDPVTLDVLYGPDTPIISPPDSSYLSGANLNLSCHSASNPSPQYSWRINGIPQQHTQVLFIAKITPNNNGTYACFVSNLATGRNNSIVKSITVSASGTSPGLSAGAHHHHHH
Experimental: (§1) Briefly, anti-murine IgG antibody was immobilized on an activated CM5 biosensor chip (Cat. No. BR100530, GE Life Sciences). Purified murine antibodies were flowed over the chip surface and captured by anti-murine IgG antibody. […] The equilibrium dissociation constant (KD) was calculated as the ratio koff/kₒₙ.

[6] = biological target: T1, chimeric construct (CHIM); experiment: as above
Experimental: as §1

B1: BGA6710 (antibody, human IgG1, V domains shown)
VH: QVQLVQSGAEVKKPGASVKVSCKASGYIFTSYYLHWVRQAPGQGLEWIGYINPQTGYTSYAQKFQGRVTMTRDTSTSTVYMELSSLRSEDTAVYYCAREYGNYNYPLDYWGQGTLVTVSS
VL: DIQMTQSPSSLSASVGDRVTITCRASENQYGYLAWYQQKPGKVPKLLIYNYKNLVEGVPSRFSGSGSGTDFTLTISSLQPEDVATYYCQHHLGTPYTFGQGTKVEIK
notes: BGA2433 with W33Y (VH) and T51Y (VL); wild-type human IgG1 format
**Q.** What does the source list for B1?
**A.** Kd [1]: 15.1 nM; koff [1]: 0.000475 s⁻¹; kon [1]: 31500 M⁻¹ s⁻¹; Kd [2]: 1.49 nM; koff [2]: 0.000169 s⁻¹; kon [2]: 113000 M⁻¹ s⁻¹; EC50 (read off the curve) [3]: ~0.5 µg/mL; ADCC (LDH release), NK92MI/CD16V effector cells with CT26 cells expressing CEA, EC50 [4]: ~0.0067 µg/mL; EC50 [5]: 0.49 µg/mL; Top [5]: 919

B2: BGA7592-1F: "BGA7592-1F (N54Q, N59S, S61 A (VH))"; humanized, "no glycosylation sites but had a high expression level" (antibody, V domains shown)
VH: QVQLVQSGAEVKKPGASVKVSCKASGYIFTSYWLHWVRQAPGQGLEWIGYINPQTGYTSYAQKFQGRVTMTRDTSTSTVYMELSSLRSEDTAVYYCAREYGNYNYPLDYWGQGTLVTVSS
VL: DIQMTQSPSSLSASVGDRVTITCRASENIYGYLAWYQQKPGKVPKLLIYNAKNLVEGVPSRFSGSGSGTDFTLTISSLQPEDVATYYCQHHYGTPYTFGQGTKVEIK
**Q.** Which “binding affinities compared to BGA7592-1” value (CEA) does the source give for B2 here?
**A.** significantly reduced binding affinities

B3: BGA7592 (antibody, V domains shown)
VH: QVQLQQSGAELAKSGASVKMSCKASGYIFTSYWLHWVKQRPGQGLEWIGYINPNTGYTNYSQKFKDKATLTADKSSSTAYMQLSSLTSEDSAVYYCAREYGNYNYPLDYWGQGTSVTVSS
VL: DIQMTQSPASLSASVGETVTITCRASENIYGYLAWYQQKQGKSPQLLVFNAKNLVEGVPSRFSGSGSGTQFSLKINSLQPEDFGSYYCQHHYGTPYTFGGGTKLEIK
notes: Murine monoclonal antibody purified from hybridoma supernatant; also called murine anti-CEA antibody BGA7592
**Q.** How did the Kd (CEA variant (CEA-v)) turn out when B3 was run?
**A.** 150 nM

**Q.** And the Kd [6]?
**A.** 120 nM
